Square brackets hold non-standard residues; d marks the D form. Ends that are not written are not given here.
T1: GIP receptor
T1 sequence (P48546 whole entry, species assumed, looked up): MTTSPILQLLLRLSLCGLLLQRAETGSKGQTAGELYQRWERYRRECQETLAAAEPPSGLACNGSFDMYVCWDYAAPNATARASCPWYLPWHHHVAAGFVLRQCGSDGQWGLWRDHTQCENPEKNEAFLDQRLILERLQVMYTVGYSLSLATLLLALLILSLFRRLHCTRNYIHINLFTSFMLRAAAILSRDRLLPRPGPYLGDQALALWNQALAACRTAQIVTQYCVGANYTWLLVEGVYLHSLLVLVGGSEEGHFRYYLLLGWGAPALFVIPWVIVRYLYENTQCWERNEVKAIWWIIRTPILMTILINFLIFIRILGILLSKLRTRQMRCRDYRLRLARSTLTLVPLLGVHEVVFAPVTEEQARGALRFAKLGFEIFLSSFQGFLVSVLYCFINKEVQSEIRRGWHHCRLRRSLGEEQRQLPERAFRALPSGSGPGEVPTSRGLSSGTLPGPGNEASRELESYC

T2: GLP-1 receptor, P32301
T2 chain: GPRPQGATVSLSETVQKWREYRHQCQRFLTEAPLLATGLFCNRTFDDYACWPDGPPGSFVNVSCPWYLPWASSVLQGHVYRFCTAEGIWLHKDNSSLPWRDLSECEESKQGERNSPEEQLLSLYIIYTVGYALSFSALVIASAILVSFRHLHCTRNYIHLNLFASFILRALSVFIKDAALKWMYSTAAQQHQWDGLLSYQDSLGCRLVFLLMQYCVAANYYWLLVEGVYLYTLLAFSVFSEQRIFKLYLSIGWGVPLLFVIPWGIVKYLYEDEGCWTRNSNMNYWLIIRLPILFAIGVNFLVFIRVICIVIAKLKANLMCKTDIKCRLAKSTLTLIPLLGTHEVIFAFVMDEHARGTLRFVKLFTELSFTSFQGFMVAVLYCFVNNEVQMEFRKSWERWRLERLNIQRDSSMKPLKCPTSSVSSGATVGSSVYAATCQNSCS


Assays:
[1] = target: T1, GIP receptor; assay: GIP receptor binding assay
[2] = target: T2, GLP-1 receptor, P32301; assay: GLP-1 receptor binding, displacement of [125I]GLP-1 on RINm5F cell membranes

| Binder | GIP RBA [1] [nM] | GLP RBA [2] |
| --- | --- | --- |
| Y[dA]EGTFISDYSIAMDKIHQQDFVNWLLAQKPKKIRYS [0601GIP4233, [dAla2] GIP-(1-30)-fGLP-1v2-(31-37)] | 0.1 | – |
| YAEGTFISDYSIAMDKIHQQDFVNWLLAQKPSSGAPPPS (modifications not checked) [0601GIP3794, (D-Ala2)GIP(1-30)-… amide form] | – | 1000 |
